# According to paper PMC10786891, “Massively parallel profiling of RNA-targeting CRISPR-Cas13d”:
# B1: target 2 MT 5'PFS CGG 3'PFS ACC (mixed)
# RNA 1: CACCCGUGCAAAAUUGCAGGGGUCUAAAACCUUCUCCAAAUUGUUUCAUCCU
# RNA 2: GGGAAUGGAUCCACAUCUACGAAUUCCGGAGGAUGAAACAAUUUGGAGAAGACCAGAUCGGAAGAGCACACGU
# B2: target 2 MT 5'PFS CAC 3'PFS UGU (mixed)
# RNA 1: CACCCGUGCAAAAUUGCAGGGGUCUAAAACCUUCUCCAAAUUGUUUCAUCCU
# RNA 2: GGGAAUGGAUCCACAUCUACGAAUUCCACAGGAUGAAACAAUUUGGAGAAGUGUAGAUCGGAAGAGCACACGU
# B3: target 2 MT 5'PFS GGC 3'PFS CCG (mixed)
# RNA 1: CACCCGUGCAAAAUUGCAGGGGUCUAAAACCUUCUCCAAAUUGUUUCAUCCU
# RNA 2: GGGAAUGGAUCCACAUCUACGAAUUCGGCAGGAUGAAACAAUUUGGAGAAGCCGAGAUCGGAAGAGCACACGU
# B4: target 2 MT 5'PFS GUC 3'PFS AUA (mixed)
# RNA 1: CACCCGUGCAAAAUUGCAGGGGUCUAAAACCUUCUCCAAAUUGUUUCAUCCU
# RNA 2: GGGAAUGGAUCCACAUCUACGAAUUCGUCAGGAUGAAACAAUUUGGAGAAGAUAAGAUCGGAAGAGCACACGU
# B5: target 2 MT 5'PFS CUG 3'PFS UUA (mixed)
# RNA 1: CACCCGUGCAAAAUUGCAGGGGUCUAAAACCUUCUCCAAAUUGUUUCAUCCU
# RNA 2: GGGAAUGGAUCCACAUCUACGAAUUCCUGAGGAUGAAACAAUUUGGAGAAGUUAAGAUCGGAAGAGCACACGU
# B6: target 2 MT 5'PFS GCU 3'PFS CAU (mixed)
# RNA 1: CACCCGUGCAAAAUUGCAGGGGUCUAAAACCUUCUCCAAAUUGUUUCAUCCU
# RNA 2: GGGAAUGGAUCCACAUCUACGAAUUCGCUAGGAUGAAACAAUUUGGAGAAGCAUAGAUCGGAAGAGCACACGU
# B7: target 2 MT 5'PFS CGG 3'PFS UUG (mixed)
# RNA 1: CACCCGUGCAAAAUUGCAGGGGUCUAAAACCUUCUCCAAAUUGUUUCAUCCU
# RNA 2: GGGAAUGGAUCCACAUCUACGAAUUCCGGAGGAUGAAACAAUUUGGAGAAGUUGAGAUCGGAAGAGCACACGU
# B8: target 2 MT 5'PFS CUG 3'PFS UUG (mixed)
# RNA 1: CACCCGUGCAAAAUUGCAGGGGUCUAAAACCUUCUCCAAAUUGUUUCAUCCU
# RNA 2: GGGAAUGGAUCCACAUCUACGAAUUCCUGAGGAUGAAACAAUUUGGAGAAGUUGAGAUCGGAAGAGCACACGU
# B9: target 2 MT 5'PFS GUC 3'PFS AUG (mixed)
# RNA 1: CACCCGUGCAAAAUUGCAGGGGUCUAAAACCUUCUCCAAAUUGUUUCAUCCU
# RNA 2: GGGAAUGGAUCCACAUCUACGAAUUCGUCAGGAUGAAACAAUUUGGAGAAGAUGAGAUCGGAAGAGCACACGU
# B10: target 2 MT 5'PFS CUG 3'PFS UUC (mixed)
# RNA 1: CACCCGUGCAAAAUUGCAGGGGUCUAAAACCUUCUCCAAAUUGUUUCAUCCU
# RNA 2: GGGAAUGGAUCCACAUCUACGAAUUCCUGAGGAUGAAACAAUUUGGAGAAGUUCAGAUCGGAAGAGCACACGU
# B11: target 2 MT 5'PFS GUC 3'PFS AUC (mixed)
# RNA 1: CACCCGUGCAAAAUUGCAGGGGUCUAAAACCUUCUCCAAAUUGUUUCAUCCU
# RNA 2: GGGAAUGGAUCCACAUCUACGAAUUCGUCAGGAUGAAACAAUUUGGAGAAGAUCAGAUCGGAAGAGCACACGU
# B12: target 2 MT 5'PFS CUA 3'PFS CUU (mixed)
# RNA 1: CACCCGUGCAAAAUUGCAGGGGUCUAAAACCUUCUCCAAAUUGUUUCAUCCU
# RNA 2: GGGAAUGGAUCCACAUCUACGAAUUCCUAAGGAUGAAACAAUUUGGAGAAGCUUAGAUCGGAAGAGCACACGU
# B13: target 2 MT 5'PFS CGG 3'PFS UUC (mixed)
# RNA 1: CACCCGUGCAAAAUUGCAGGGGUCUAAAACCUUCUCCAAAUUGUUUCAUCCU
# RNA 2: GGGAAUGGAUCCACAUCUACGAAUUCCGGAGGAUGAAACAAUUUGGAGAAGUUCAGAUCGGAAGAGCACACGU
# B14: target 2 MT 5'PFS UGG 3'PFS CGA (mixed)
# RNA 1: CACCCGUGCAAAAUUGCAGGGGUCUAAAACCUUCUCCAAAUUGUUUCAUCCU
# RNA 2: GGGAAUGGAUCCACAUCUACGAAUUCUGGAGGAUGAAACAAUUUGGAGAAGCGAAGAUCGGAAGAGCACACGU
# B15: target 2 MT 5'PFS CAU 3'PFS UCU (mixed)
# RNA 1: CACCCGUGCAAAAUUGCAGGGGUCUAAAACCUUCUCCAAAUUGUUUCAUCCU
# RNA 2: GGGAAUGGAUCCACAUCUACGAAUUCCAUAGGAUGAAACAAUUUGGAGAAGUCUAGAUCGGAAGAGCACACGU
# B16: target 2 MT 5'PFS ACC 3'PFS AGA (mixed)
# RNA 1: CACCCGUGCAAAAUUGCAGGGGUCUAAAACCUUCUCCAAAUUGUUUCAUCCU
# RNA 2: GGGAAUGGAUCCACAUCUACGAAUUCACCAGGAUGAAACAAUUUGGAGAAGAGAAGAUCGGAAGAGCACACGU
# B17: target 2 MT 5'PFS UCU 3'PFS ACA (mixed)
# RNA 1: CACCCGUGCAAAAUUGCAGGGGUCUAAAACCUUCUCCAAAUUGUUUCAUCCU
# RNA 2: GGGAAUGGAUCCACAUCUACGAAUUCUCUAGGAUGAAACAAUUUGGAGAAGACAAGAUCGGAAGAGCACACGU
# B18: target 2 MT 5'PFS CGG 3'PFS ACA (mixed)
# RNA 1: CACCCGUGCAAAAUUGCAGGGGUCUAAAACCUUCUCCAAAUUGUUUCAUCCU
# RNA 2: GGGAAUGGAUCCACAUCUACGAAUUCCGGAGGAUGAAACAAUUUGGAGAAGACAAGAUCGGAAGAGCACACGU
# B19: target 2 MT 5'PFS CUG 3'PFS UUU (mixed)
# RNA 1: CACCCGUGCAAAAUUGCAGGGGUCUAAAACCUUCUCCAAAUUGUUUCAUCCU
# RNA 2: GGGAAUGGAUCCACAUCUACGAAUUCCUGAGGAUGAAACAAUUUGGAGAAGUUUAGAUCGGAAGAGCACACGU
# B20: target 2 MT 5'PFS CGG 3'PFS UUA (mixed)
# RNA 1: CACCCGUGCAAAAUUGCAGGGGUCUAAAACCUUCUCCAAAUUGUUUCAUCCU
# RNA 2: GGGAAUGGAUCCACAUCUACGAAUUCCGGAGGAUGAAACAAUUUGGAGAAGUUAAGAUCGGAAGAGCACACGU
# B21: target 2 MT 5'PFS GGC 3'PFS CCA (mixed)
# RNA 1: CACCCGUGCAAAAUUGCAGGGGUCUAAAACCUUCUCCAAAUUGUUUCAUCCU
# RNA 2: GGGAAUGGAUCCACAUCUACGAAUUCGGCAGGAUGAAACAAUUUGGAGAAGCCAAGAUCGGAAGAGCACACGU
# B22: target 2 MT 5'PFS AGG 3'PFS CCU (mixed)
# RNA 1: CACCCGUGCAAAAUUGCAGGGGUCUAAAACCUUCUCCAAAUUGUUUCAUCCU
# RNA 2: GGGAAUGGAUCCACAUCUACGAAUUCAGGAGGAUGAAACAAUUUGGAGAAGCCUAGAUCGGAAGAGCACACGU
# B23: target 2 MT 5'PFS AGG 3'PFS CCG (mixed)
# RNA 1: CACCCGUGCAAAAUUGCAGGGGUCUAAAACCUUCUCCAAAUUGUUUCAUCCU
# RNA 2: GGGAAUGGAUCCACAUCUACGAAUUCAGGAGGAUGAAACAAUUUGGAGAAGCCGAGAUCGGAAGAGCACACGU
# B24: target 2 MT 5'PFS GGU 3'PFS UUU (mixed)
# RNA 1: CACCCGUGCAAAAUUGCAGGGGUCUAAAACCUUCUCCAAAUUGUUUCAUCCU
# RNA 2: GGGAAUGGAUCCACAUCUACGAAUUCGGUAGGAUGAAACAAUUUGGAGAAGUUUAGAUCGGAAGAGCACACGU
# B25: target 2 MT 5'PFS UUU 3'PFS AGG (mixed)
# RNA 1: CACCCGUGCAAAAUUGCAGGGGUCUAAAACCUUCUCCAAAUUGUUUCAUCCU
# RNA 2: GGGAAUGGAUCCACAUCUACGAAUUCUUUAGGAUGAAACAAUUUGGAGAAGAGGAGAUCGGAAGAGCACACGU
# B26: target 2 MT 5'PFS GGU 3'PFS UUC (mixed)
# RNA 1: CACCCGUGCAAAAUUGCAGGGGUCUAAAACCUUCUCCAAAUUGUUUCAUCCU
# RNA 2: GGGAAUGGAUCCACAUCUACGAAUUCGGUAGGAUGAAACAAUUUGGAGAAGUUCAGAUCGGAAGAGCACACGU
# B27: target 1 U11A,A16G (mixed)
# RNA 1: CACCCGUGCAAAAAUGCAGGGGUCUAAAACUGAGCGGAUAACCUCUCUAUGG
# RNA 2: GGGAAUGGAUCCACAUCUACGAAUUCGUACCAUAGGGAGGAUAUCCGCUCACCGAGAUCGGAAGAGCACACGU
# B28: target 1 insA 3' of 21,insC 3' of 20 (mixed)
# RNA 1: CACCCGUGCAAAAAUGCAGGGGUCUAAAACUGAGCGGAUAACCUCUCUAUGG
# RNA 2: GGGAAUGGAUCCACAUCUACGAAUUCGUACCAACUAGAGAGGUUAUCCGCUCACCGAGAUCGGAAGAGCACACGU
# Molecular target: T1, EsCas13d, nuclease-dead (Eubacterium siraeum, UniProt B0MS50, R295A;H300A;R849A;H854A)
# T1 sequence: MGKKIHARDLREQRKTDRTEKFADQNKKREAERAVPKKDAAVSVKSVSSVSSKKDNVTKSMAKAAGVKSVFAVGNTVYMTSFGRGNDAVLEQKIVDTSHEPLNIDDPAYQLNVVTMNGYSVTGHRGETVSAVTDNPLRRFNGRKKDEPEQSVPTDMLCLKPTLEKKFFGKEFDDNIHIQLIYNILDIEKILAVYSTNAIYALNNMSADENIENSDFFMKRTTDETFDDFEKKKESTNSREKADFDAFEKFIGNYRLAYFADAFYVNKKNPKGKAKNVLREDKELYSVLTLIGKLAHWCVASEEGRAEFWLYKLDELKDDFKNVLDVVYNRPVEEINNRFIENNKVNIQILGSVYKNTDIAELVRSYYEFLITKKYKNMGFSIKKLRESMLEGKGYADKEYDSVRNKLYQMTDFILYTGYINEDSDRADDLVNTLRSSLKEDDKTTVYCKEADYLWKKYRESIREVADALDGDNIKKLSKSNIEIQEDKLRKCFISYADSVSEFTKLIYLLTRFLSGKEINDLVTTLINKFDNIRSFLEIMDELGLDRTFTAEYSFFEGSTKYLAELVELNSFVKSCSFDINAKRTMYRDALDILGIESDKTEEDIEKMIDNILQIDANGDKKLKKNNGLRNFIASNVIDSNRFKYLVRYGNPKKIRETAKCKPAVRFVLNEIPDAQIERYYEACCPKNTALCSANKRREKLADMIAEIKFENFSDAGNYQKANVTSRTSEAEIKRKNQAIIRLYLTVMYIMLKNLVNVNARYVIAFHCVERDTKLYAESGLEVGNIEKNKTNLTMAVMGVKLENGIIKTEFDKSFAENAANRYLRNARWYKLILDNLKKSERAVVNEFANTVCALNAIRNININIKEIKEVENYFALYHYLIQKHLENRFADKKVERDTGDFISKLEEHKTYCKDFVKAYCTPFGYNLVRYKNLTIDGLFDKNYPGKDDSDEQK
# Assay: crRNA (strand 1, pre-loaded); Mg2+; 40 mM Tris-HCl pH 7.5, 150 mM NaCl, 6 mM MgCl2, 1 mM DTT, 0.1% Tween-20, 0.2 mg/ml BSA; 25 C; 10 min per concentration, then washed
# Details: tags: His6-TwinStrep-SUMO cleaved; N-terminal SNAP kept (SNAP-Surface 488); label: 3' end held by stalled T7 RNA polymerase
row,Binder,Kd [nM]
1,B1,12 ± 1.9
2,B2,2.27 ± 0.29
3,B3,17.1 ± 3
4,B4,12.6 ± 1.6
5,B5,4.7 ± 0.4
6,B6,9.8 ± 2.5
7,B7,6.5 ± 0.7
8,B8,5.8 ± 0.9
9,B9,15.6 ± 1.9
10,B10,7.3 ± 1.4
11,B11,13.5 ± 1.2
12,B12,4 ± 0.8
13,B13,10.8 ± 1.7
14,B14,5.4 ± 0.8
15,B15,4.7 ± 0.7
16,B16,7.9 ± 3.1
17,B17,9.2 ± 1.9
18,B18,5 ± 0.5
19,B19,5.5 ± 0.5
20,B20,7 ± 1
21,B21,16.9 ± 2.7
22,B22,40 ± 15
23,B23,8.2 ± 0.9
24,B24,68 ± 20
25,B25,4.9 ± 0.6
26,B26,73 ± 28
27,B27,77 ± 15
28,B28,10 ± 0.5
